What was measured:
[1] = molecular target: HLA-A*03:01 recombinant MHC class I molecule (human); assay: REVEAL MHC-peptide complex stabilisation assay, recombinant HLA-A*03:01; conditions: remark: other sources report otherwise
[2] = molecular target: recombinant HLA-A*02:01 MHC class I molecule (human); assay: REVEAL MHC-peptide binding assay, stabilisation of ternary complex with recombinant MHC; conditions: remark: other sources report otherwise; scale: score, % of positive control peptide
[3] = molecular target: recombinant HLA-A*03:01 MHC class I molecule (human); assay: as above; conditions: remark: other sources report otherwise; scale: score, % of positive control peptide
[4] = molecular target: HLA-A*11:01 recombinant MHC class I molecule (human); assay: REVEAL MHC-peptide binding assay, stabilisation of ternary MHC-peptide complex, recombinant HLA; conditions: remark: other sources report otherwise; scale: % of positive control peptide
[5] = molecular target: HLA-B*08:01 recombinant MHC class I molecule (human); assay: as above; conditions: remark: other sources report otherwise; scale: % of positive control peptide

B1: … (peptide)
peptide: IFWVQRGAK
Binder B1 has an In Vitro Score (% of positive control peptide) [1] of 7.

B2: … synthetic 9-mer peptide (overlapping reference peptide 1, K29R) (peptide)
peptide: VAFIIFWVR
Work on B2 yielded an In Vitro Score [2] of 1.2 and an In Vitro Score [3] of 0.7.

B3: … synthetic 9-mer peptide (SEQ ID NO: 100), K29R variant of overlapping reference peptide 1 of the CD28 transmembrane/4-1BB junction (peptide)
peptide: VAFIIFWVR
Work on B3 yielded an In Vitro Score [4] of 34.6 and an In Vitro Score [5] of 0.1.
